Experiment in all cases: SPR Biacore 8K, 25 C, biotinylated GDF-15 on streptavidin C1 chip, Fab as analyte
For orientation: Surface plasmon resonance follows binding to a sensor surface in real time, without labels.

Experiment [1] addresses T1, mature recombinant human GDF-15 with an N-terminal Flag and His tag, biotinylated (human, UniProt Q99988 197-308, chemically biotinylated with EZ link Sulfo-NHS-LC-Biotin, sites not stated).
T1 construct: not shown: N-terminal Flag and His tags
T1 sequence: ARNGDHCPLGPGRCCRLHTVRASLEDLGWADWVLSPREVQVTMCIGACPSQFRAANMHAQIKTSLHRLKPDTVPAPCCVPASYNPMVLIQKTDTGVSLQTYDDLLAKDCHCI
As to the method:
(§1) The experiments were carried out using mature recombinant human GDF-15, human GDF-15 H202D variant, mouse GDF-15, and cynomolgus GDF-15 with an N-terminal Flag and His tag. All species were chemically biotinylated using EZ link Sulfo-NHS-LC-Biotin (Thermo).
(§2) Streptavidin was covalently immobilized to a C1 chip surface using standard amine coupling techniques at a concentration of 4 μg/ml in 10 mM Sodium acetate pH 4.5. Recombinant biotinylated GDF-15 species were titrated onto the streptavidin chip surface in HBS-EP+ buffer to enable Fab binding.
(§3) Multiple buffer-only injections were made under the same conditions to allow for double reference subtraction of the final sensorgram sets, which were analyzed using Biacore 8K Evaluation Software. The chip surface was fully regenerated with pulses of 50 mM NaOH.

In experiment [2] the target is T2, mature recombinant human GDF-15 H202D variant with an N-terminal Flag and His tag, biotinylated (human, UniProt Q99988 197-308, chemically biotinylated with EZ link Sulfo-NHS-LC-Biotin, sites not stated).
T2 construct: also called Human H202D; not shown: N-terminal Flag and His tags
T2 chain: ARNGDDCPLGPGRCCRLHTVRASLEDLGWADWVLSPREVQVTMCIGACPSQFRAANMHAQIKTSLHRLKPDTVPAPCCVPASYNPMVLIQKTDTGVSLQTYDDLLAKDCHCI
How it is done: as §1, §2, §3

Experiment [3] deals with T3, mature recombinant cynomolgus GDF-15 with an N-terminal Flag and His tag, biotinylated (cynomolgus, UniProt G7PWZ3 197-308, chemically biotinylated with EZ link Sulfo-NHS-LC-Biotin, sites not stated).
T3 construct: not shown: N-terminal Flag and His tags
T3 sequence: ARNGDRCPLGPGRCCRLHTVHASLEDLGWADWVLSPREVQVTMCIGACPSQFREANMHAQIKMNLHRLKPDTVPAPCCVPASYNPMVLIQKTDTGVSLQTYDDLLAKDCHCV
How it is done: as §1, §2, §3

For experiment [4], the target named is T4, mature recombinant mouse GDF-15 with Flag and His tags (mouse, UniProt Q9Z0J7 189-303).
T4 construct: also called Flag tagged mouse GDF-15; not shown: FLAG and poly-His tags immediately C-terminal to the furin cleavage site (N-terminal on the mature protein)
T4 sequence: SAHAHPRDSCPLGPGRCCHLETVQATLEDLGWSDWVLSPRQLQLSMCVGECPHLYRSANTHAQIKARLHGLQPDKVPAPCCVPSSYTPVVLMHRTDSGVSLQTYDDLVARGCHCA
How it is done:
as §1, §2, §3

Our source for the Kd, koff and kon values is patent US20220281965A1 (AstraZeneca / MedImmune, published 2022).

B1: AB1170241 Fab (Fab, V domains shown)
VH: QVQLVQSGSELKKPGASVKVSCKASGYTFTDYNMDWIRQSPGKGLEWIGDINPNQGGTFYNQKFKDRATLTVDKSTSTAYMELRSLRSDDTAVYYCAREEKLYFGLMDYWGQGTTVTVSS
VL: DIQMTQSPSSLSASVGDRVTITCRASENIYSYLAWYQQKPGKAPKLLVYNAKTLAEGVPSRFSGSGSGIDFTLTISSLQPEDFATYYCQHQYGSPPTFGQGTKLEIK
notes: Fab of the humanized antibody, expressed as in Spooner et al. 2015
Broadly, the Kd is the constant that tells how readily two partners part at equilibrium. One may read the koff as a measure of how fast the partners let go of each other. By kon is commonly meant a measure of how fast the partners come together. Regarding B1, the dissociation constant (Kd) in experiment [1] was found to be 0.159 nM; in experiment [2], 0.156 nM; in experiment [3] it was 0.476 nM; in experiment [4], 107 nM. The off-rate (koff) in experiment [1] amounted to 0.000663 s⁻¹; in experiment [2] it was 0.000696 s⁻¹; in experiment [3] it was 0.00279 s⁻¹; in experiment [4], 0.329 s⁻¹. The on-rate (kon) in experiment [1] came to 4.18e+06 M⁻¹ s⁻¹; in experiment [2], 4.45e+06 M⁻¹ s⁻¹; in experiment [3] it was 5.87e+06 M⁻¹ s⁻¹; in experiment [4], 3.07e+06 M⁻¹ s⁻¹.

B2: AB1170243 Fab (Fab, V domains shown)
VH: QVQLVQSGSELKKPGASVKVSCKASGYTFTDYNMDWIRQSPGKGLEWIGDINPNNGGTFYNQKFKDRATLTVDKSTSTAYMELRSLRSDDTAVYYCAREEKLYFGLMDYWGQGTTVTVSS
VL: DIQMTQSPSSLSASVGDRVTITCRASENIYSYLAWYQQKPGKAPKLLVYNAKTLAEGVPSRFSGSGSGIDFTLTISSLQPEDFATYYCQHQYGSPPTFGQGTKLEIK
notes: as for B1
As to B2, the Kd in experiment [1] was 0.09 nM; in experiment [2], 0.09 nM; in experiment [3], 0.273 nM; in experiment [4], 75 nM. Moreover, the koff in experiment [1] worked out at 0.000422 s⁻¹; in experiment [2] it was 0.000425 s⁻¹; in experiment [3], 0.00169 s⁻¹; in experiment [4], 0.281 s⁻¹. Besides, the kon worked out at 4.74e+06 M⁻¹ s⁻¹ in experiment [1], 4.85e+06 M⁻¹ s⁻¹ in experiment [2], 6.23e+06 M⁻¹ s⁻¹ in experiment [3] and 3.9e+06 M⁻¹ s⁻¹ in experiment [4].

B3: AB1170242 Fab (Fab, V domains shown)
VH: QVQLQESGPGLLKPSQTLSLTCTVSGFSLSTYGMGVGWIRQPAGKGLEWLANIWWNDDKYYNSALKSRLTISKDTSKNQVSLKLSSVTAADTAVYYCAQEVYGWFAYWGQGTLVTVSS
VL: DIQMTQSPSTLSASVGDRVTITCKASQNVGTNVAWYQQKPGQPPKALIYSASYRYSGVPDRFSGSGSGTDFTLTISSLQAEDVAVYYCQQYNSYPLTFGQGTKLEIK
notes: as for B1
For B3, the equilibrium dissociation constant (Kd) was found to be 3.22 nM in experiment [1], 3.13 nM in experiment [2], 2.88 nM in experiment [3] and 908 nM in experiment [4]. Besides, the koff worked out at 0.0247 s⁻¹ in experiment [1], 0.0233 s⁻¹ in experiment [2], 0.0245 s⁻¹ in experiment [3] and 0.826 s⁻¹ in experiment [4]. Also, the kon was determined as 7.68e+06 M⁻¹ s⁻¹ in experiment [1], 7.47e+06 M⁻¹ s⁻¹ in experiment [2], 8.5e+06 M⁻¹ s⁻¹ in experiment [3] and 903000 M⁻¹ s⁻¹ in experiment [4].

B4: AB1170249 Fab (Fab, V domains shown)
VH: QVQLQESGPGLLKPSQTLSLTCTVSGFSLSTYGMGVGWIRQPLGKGLEWLANIWWNDDKYYNSALKSRLTISKDTSKNQVSLKLSSVTAADTAVYYCAQMAYSWFAYWGQGTLVTVSS
VL: DIQMTQSPSFLSASVGDRVTITCKASQNMDTNVAWYQQKPGQPPKALIYSASYRYSGVPDRFSGSGSGTDFTLTISSLQAEDVAVYYCQQYNSYPFTFGQGTKLEIK
notes: as for B1
Consider B4, for which the dissociation constant (Kd) turned out to be 3.13 nM in experiment [1], 3.04 nM in experiment [2], 3.11 nM in experiment [3] and 1140 nM in experiment [4]. The off-rate constant (koff) in experiment [1] came out at 0.0114 s⁻¹; in experiment [2] it was 0.0113 s⁻¹; in experiment [3] it was 0.0129 s⁻¹; in experiment [4] it was 0.928 s⁻¹. Also, the kon in experiment [1] amounted to 3.63e+06 M⁻¹ s⁻¹; in experiment [2] it was 3.72e+06 M⁻¹ s⁻¹; in experiment [3], 4.15e+06 M⁻¹ s⁻¹; in experiment [4] it was 804000 M⁻¹ s⁻¹.
